Experimental data taken from patent WO2021237516A1 (dated 2021).

B1: Ab2001.16 (bispecific antibody, V domains shown)
VH 1: EVQLVESGGGLVQPGGSLRLSCAASGFSFSNSDMHWVRQATGKGLEWVSAIGDSGDTYYSDSVKGRFTISRENAKSSLYLQMNSLRAEDTAVYYCARAANWGWDWYFDLWGRGTLVTVSS
VH 2: EVQLVETGGGLIQPGGSLRLSCAASGFTVSSNYMSWVRQAPGKGLEWVSVIYSGGSTYYADSVKGRFTISRDNSKNTLYLQMNSLRAEDTAVYYCARDAGPYGMDVWGQGTTVTVSS
VL: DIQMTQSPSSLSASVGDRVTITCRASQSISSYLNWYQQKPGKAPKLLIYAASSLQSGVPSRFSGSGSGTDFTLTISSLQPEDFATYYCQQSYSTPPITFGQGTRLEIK
B2: Ab2001.11 (antibody, V domains shown)
VH: B1 VH 1
VL: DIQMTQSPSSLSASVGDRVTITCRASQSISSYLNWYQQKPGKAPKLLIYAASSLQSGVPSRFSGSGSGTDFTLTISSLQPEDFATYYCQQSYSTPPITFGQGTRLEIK
B3: Ab2001.10 (antibody, V domains shown)
VH: QVQLVQSGAEVKKPGASVKVSCKASGDTFSSFDINWVRQATGQGLEWMGWMHAGSGNAGYAQKFQGRVTMTRDTSISTAYMELSSLRSEDTAVYYCANYVPHGAFQIWGQGTMVTVSS
VL: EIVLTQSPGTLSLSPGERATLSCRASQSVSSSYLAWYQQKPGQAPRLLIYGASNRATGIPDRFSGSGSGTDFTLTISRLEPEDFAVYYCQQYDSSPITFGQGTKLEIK
B4: Ab2001.08 (antibody, V domains shown)
VH: QVQLVQSGAEVKKPGSSVKVSCKASGGTFSSYAISWVRQAPGQGLEWMGRIIPIFGTANYAQKFQGRVTITADESTSTAYMELSSLRSEDTAVYYCASLASYSSGWEDVFDIWGQGTMVTVSS
VL: DIQMTQSPSSLSASVGDRVTITCRASQGISSWLAWYQQKPGKAPKLLIYDASNLETGVPSRFSGSGSGTDFTFTISSLQPEDIATYYCQQYDNLPLTFGGGTKVEIK

How the values were obtained:
[1] = biological target: SARS-CoV-2 S1 (SARS-CoV-2, UniProt P0DTC2 16-685)
[2] = biological target: SARS-CoV S1 (SARS-CoV, UniProt P59594 14-667); assay: competition ELISA as in Example 3.2: blocking of SARS-CoV S1 binding to hACE2

Binder	Kd [1] [nM]	IC50 [2] [nM]
B1	2.39	
B2		304
B3	4.21	
B4	2.93	
